Test: soluble on expression in E. coli; label from the status in PepcDB or PDB records
In the case of “GPGSMETAIQQDPVYVRLGVFRRLHGSNEVEWLMLRRINREMRPPDIPPISLKLPGKWTLLYERYKEAAIRTLWEETGITVDPTSVFPTAQLYQTSPKYYWRVPVRYFVAEVPHDVRVEGPQVVPTQYMRNWDVRLLRQSPDPIDRAWAQLADPITGCAWMKAPMIDELQKPLRGEKYMATRYTPPPYSNLQEVVGLGDGDQDTQNKETEAADPNA”, the “soluble on expression in E. coli” value is reported as “not soluble”.
With “GPGSMFFLTRFKLGMADVTAAIGSGKCGEVLRKLNEKKAVREREENIDYRRALCFLANSQDVFHARQALLEELRHFPNNTAARTLLLEVNETVRPLLMPPKELLKSEPLFGLLCDALLDHTMLTWTRLYSLYRLSKEVCSKEGEGGALMECGVSGGGSVVLLAVVAAHYSKKPRKIYALDTFSGMPEPTTHDNLEEDGNLKPAESTSWGSGTCSATVENVRQLAKNFDVEEGLVVIPGLFHETMPKTLREISDEGISMLHVDADWYESTRCALELAWPMVKQGGMVQVDDYHYWLGCRKAVDEFAQREESEHRPLPILQNVDGNAVYFTKP” the “soluble on expression in E. coli” value was “not soluble”.
For “GPGSMLYDEEECIKVIVVGDGNVGKTCMLRRFVRGDFVEQYRKTIGAEFMEKDVFLRSSKTMVKLMLWDTAGQEVFNALTQAYYRGAGAAILTFSTVDRDSLMSIAGWKQRVESVCGCITMVLCQTKFDLSHEAVITHAEAEGLASQLEVPLFRVSAKDDFNVRQLFEFTAQQCVENSAQDEAPVDDMP”, the “soluble on expression in E. coli” value was “not soluble”.
In the case of “GPGSMMELPMEMNVDGVPMVLSKVSYSPMLDFGGTFSYRRYCFVGELQPEGYVNWFFAPLEGYKDKRLRVHESAVKEGALNHLVFMRLGELSFRQYKLKHIPSPTEQPHSPVTPQGDSTKQLMGHAHPHFNYIFEAMRQDQASSPSPRSSSIGSDCTYHSSKESCESLQMSSSLVDLPGKRLSNASLRSGVRPPLEARRGAVCDDEGFLPPVRSLKKSSERSQEL”, the “soluble on expression in E. coli” value is reported as “not soluble”.
In the case of “GPGSMMEYADAYVGGGGRLRPGAQGSTTATGASRPYLEQRTVAPVTSALGQELDRLVGGTLAAQEYRDRLEALTRSVQASDEKVLNLTRLVKLSQSIQEEKEADLRRQNDELRARLKRQEQLTAQLQRQLEGMQGAVDAQALHHVVERLEGQMSACRGKQEEQWVAVQQRIGELEDRLQRASTCTAERCEERLMQLDERLQQVTQSTADATNQWAKRNFVRFKEQVDSLRADLDDVRGGQKELKSTVQSASCRAEIEYKKVLLLLQQKTKEADALTSLVEKELQHLQKVAHRHQILASKDITPAFEFDEKPYDALKFAAGEGKRRGAEAAAERRRR”, the “soluble on expression in E. coli” value is reported as “not soluble”.
For “GPGSMMRRVGDYEILDVVGEGAYSKVKRVRHIPTGCMFVAKIVPKTNQQVENDVRLEISILRRLKHKNIVQLIEILESTNNYYIILEPVMGGDLCDIIVGMDRPLPEQDVAALLIQLVAGVRACHRNGVAHRDLKPENLLLGTDGVLKISDFGLSRLHRESNFQASTNEYAHTLTGTLAYLAPEVFGGSYDAFRADIWSMGCIAYVLLTQNFPFGSTTDPHALEVRIRNGEVSVMPSSVSAEAKNLCKWLLSPRPEDRPTLDAVAQHDFFKRYLPAEYLRMTANRKSPIVHGANMNEFSSQVQEEAPSCSPSTATAKRKHQYVRSGSAARTSPSSSAVAGAATSSNRSSESGRDREDLVSHGTQGESDPGGYCGDV”, the “soluble on expression in E. coli” value was “soluble”.
For “GPGSMQERESLLKEYKGLLANLEEAFDLKRSNEADQEVDDLIDETKAELRTVVASLNASEVIEVTKDVTKVVDADGNTVILYSKVAPYEVHFDNAMWYSCVITDVVQPETALERVRYKAWILGYNVEEETYSEQLRVWQPQAAEGETTLRSGVACHAVNPRSGRFESAKVVRLTLSDTVILTFSDVVEMTKEVGETDGAGAAGELATGKRDPSGGDTSAVTEEVPLSHVRVGRFYQQLRKRSTLTSEERARRRAQNVERKRVRRETKRQQDANVASQNANDWQRLVEDMGLATGCAKKRR”, the “soluble on expression in E. coli” value was “soluble”.
In the case of “GPGSMRNLLGESAVSSLVIEEPTKVAMTTSPTAVLNSSMSTDTDSTAVSPARVKGVSPQTKANGNSNGDGSTAIRGQSNDKQLEAPTEVQYRAVEVMVVDRGTQTTTTVGCQTDPEPSQSPVGGAMPFHRGFCPRCTCCCRGVVRDYPWRNAREEEDRSSRFQEELETIQKSIDMMIARYNLPPPPMPRY”, the “soluble on expression in E. coli” value is reported as “not soluble”.
In the case of “GPGSMRSLVVHLLSYTQRFASAKPTILYVPQKTLIAEQVMEDEFKLSHTFPSLRIASLDLDYVFLEEKFFTMTLPLSFKSVFADGDLSNLTWIARLLLKLQTARFGAIRHIRGKGSNAAKVIQLLQRMQNNISHDFITDIPSEVETLIIIDRSVDFVTPLMTQLTYEGLIDELYDIENCEVQFPFSLGESSGVGASEKVVLNSTDRMFAEIRDRSFTGVGSVLYQKSIWVKQNYDKRKEVQQLKELKEFMKGLPEMQEMHRLIGIHTNVATEISKTTQRTDFRKRIMFEHNIIQQTNEGDVLRYIEDLVFRKEKFEVVLRLLALLSLVNSGLREKDLLGLKENMMLVYGIPHVITAFFMLERCGLLCAQSGKGSSYSTIRKQLRTWNSSVPEGQPNDIAYAYGGYAPPFVRMVDTLLRNPQAWDAEDDAPSLLPGEKKELMNDVEIAGTTKTAIVFVIGGITASEVSALRFVEERLSSGGRPHRIFIGTTDIISGNRMIRSLLPFEPAR”, the “soluble on expression in E. coli” value is reported as “not soluble”.
In the case of “GPGSMRVNDSITVQQLADEYCITSVVECDATGSVQPRAVALDSPLDVLHGGKYYIARRDVKHFAREPRVTFRGKVTVREFNATHGVIGREGETNANRGQAVAADPVGVAPSRKRPEREEDLFDSGTRTEIYAKEYEFVPFVGDLYNDGRNGMIHLKDVKKLCESVDLDEVEFRARHVQAEKILTHAKQLLLSYADGNGGRTSPEY”, the “soluble on expression in E. coli” value is reported as “not soluble”.
With “GPGSMSFPKEWTDTWNLFDDRRSGSVTHSDVKHIIRSLGRRYTEAEFNELLHDIPDPIPYQSFVEIMQKPYNGPTEDDLRTALRAFDGNDSGQLKLSELITLLTSLGEKMPEAEVKQLLSEVHTNEDGRVNIDDLARFLCTPLPTTQPDIAELQKQLAGIS” the “soluble on expression in E. coli” value was “soluble”.
For “GPGSMSLKKKTFKQRIRKNDMKQRHQIGFGLRKRMGAARRIRNRYDSVDDGTRPMEMIVSEIAEGTAVPSQEAVLDPRSLTDLLLRPAESPVSNNSASASANVATTSCAVASKSNGCSSALWKRGSSKSSALLTSVPLASEKVLPSLPLAPDDPLALPDTRVFEEEERQQRLAREAAARQNENKNLYRHSGQPYLFWERVGLHPALLQALRDLHFTHPTPVQEEVLPNVLASGDEGLARQRSSEADKKSKKHKRAGGAADSAGHDVVVSAETGSGKTLVFALPILQDLLTTLDTERVSAVTPTSSAEAVHEKATGQASSDAAWRERS”, the “soluble on expression in E. coli” value was “soluble”.
In the case of “GPGSMSTSQPIVKPFIYLRIPSEDARPVEELHFNGHNEAELRHTLTRCFRQSLLSDDQKKDMARHLADKASESAKKHAVKGNGDASAAGSGAEPPVDVEQQQAAMIDQYLEQASYEIIPVTMPMRSTQYIGTSLYIDDSGAFKDLPLNYRASKLAQREIRGDAFLLSNHDDPALDEWGRVDCPLQRYEELYANPPQIAYDPSNQAQMTQAAMLRETETKKISLEDYEKAQKAKEDGNRLFAANDLPAAVQAYSMTVDLTDGRRDLLPNEEAATQLRLSALLNRCLCFTRLKKFPEAVRDAQAAAYLDPKSMKAYYRLTYALCGAQEYEAAAQACEKYAQLGGAEEDVTAMRTAVAAGETEVKKAQKQIFSKMFRS”, the “soluble on expression in E. coli” value is reported as “soluble”.
In the case of “GPGSMSVSATPYKRQDAITAKTVLLGESAVGKSSIALRFARNEFSSNQETTIGAAFLSRSVTVSATSQSGGGGAVANAASGTIKFEIWDTAGQERYRSLAPIYYRGACGALVVYDITSAESLKKAQMWMRELRANADPTLLIILVGNKKDMESLRQVSYEDGAAVAQEEDVNGFFEVSAKENVNVEEVFAKLARLLLEHGLGANSGPGSLSGPRGAQRLEPPTRQQKKEGGCAC”, the “soluble on expression in E. coli” value is reported as “not soluble”.
With “GPGSMTDALAKPIRVCVLACSYEGSDSELRAYEGDLIQTPQNYFCSEDAQCTFHLELIKKATAYRQIRQLVMSGKFDVFYNQCDGAKDEDRAGVEVVEALEEFKVPYTGAISKYYEMSKPDMKLVAYYYNIATANYIVLAPGDDIESLCGDLQFPCIIKHISGYSSVGMDKSCKVYDMAHLVDRAARFMAEYQFALVEEFVNGDEATILACSDSTQPEGVRVFPPVQVAFPEGEDFKHFQLKWASYEGMKWTQVPQEDPAMQNMIDIARSAFKRMMGGVGYGRIDVRIDRQKNHKVVFLEINPNCGIMYPYGQEGSADWILRLNRGFQQREFAMLQIREAITRCQRERLLYVRRFDPVRGYHLRAAEDISVGTIIFQDECRPVRLCTKPYALQHFSKADYVDFQHNAWPVGRDGHYYALWDHDPAQWRAFNHSCEPNMSFAPMRSLDVVALRNIPKGEELTMDYRQFMDSTMPGFQCNCGTEKCEGFVSPGSLVDSPTAKIASQPTVALRHNIAVRLNPI” the “soluble on expression in E. coli” value was “soluble”.
For “GPGSMTEKPAKEPPLPRDLKAQFDVLAGTRWDGVGDDADAAEQLSQLRQEWKALGNACYGKGYFLAAIRCYSRLLEVPGGDTAQIRSNRSAAYLQSPMLVGPSLALKDAEKAVELDPQWFKAHLRVGDAHRKRGHFAEAEAAYREALARQPECATALAGLRALQVESAGLPAAAATFPRGHAERTPYHNAPPSPRSLSSRTTAHAVAVAQAKEEELQLTQEQLVHKWKADISTREGRTGCRPRQASLSQADRQHGAAIKQALLARFRDKLESNGEFSAILRNRCEEAMLRGEGINYRDADKLRNTYSHATNGIGLGISSDAYKEYTGRVDHRTW”, the “soluble on expression in E. coli” value was “soluble”.
For “GPGSMVLIECKRLPKDEYSKDYDVFLVSMPGSTNIGEATDALQKMRNTRVRIKWMCAAAKQLAKDFCSDEQKHHLLGAVEDAERYMAIERAENRQLCSQEDLDAHIAAFKGSAMILFPAECSGTDAVKRLALVLDDENTTDLERSKAHRLLSIIDDGAATEDILQGPAVMWWSGKPLDRNADFTKYVGKNEKTKITMKLAAKDAPPPPREPAVDAKTQSEMMAFYFKKQEEMKKLIEDEDLTYGNSAWADPRGLRSQLHGFDGVKYKPG”, the “soluble on expression in E. coli” value was “soluble”.
With “GPGSMVLVLVVGDTWVPQRASGVPEVFCKMFSPGRIHKLLITGGVGSKEMYDYLRTIAPEVHCVTSSVDRQWADHMPESVVLTVEGLKLGLIHGHQVPVGDKDSLAAVQRELDVDVLVSGSTHQSKYFEFDSHLFVNPGSLSGADTEYDVNVVPSFMLLDIQDKSVVTFIYQFHPEDETGGGGTATEDLAAAGMVPGLRIKKKEWAKE” the “soluble on expression in E. coli” value was “not soluble”.
For “GPGSMWFNHRIRQRGLTPVLVNTLQKRLTCSLTRICLCDCKDASGREGVSSSTSGSVPSRMTSQNPPPRPPPTTPAATPGGVQYNTRRESEAVAIEQRRQQQQRATDAQRRGEEPLPEQSESEMARWWPEENQNWSGRMFASPLDKNKKKFDGMFVPEMKEVHGPDKPLELSYAGDNFFLNPDFHMADEVFDETRRFVPPPSFDPAVDEIDDEGFVDGQVMFDIQKAVDEDRRRLEAFGNPLLVEDQVDYLLQPQREGQENIQQRQEFNGFVHWGLLHGAHMIIEENQDYKKAHEFVNRYMRDIDLFQKWLEHPKVRAHIQKKFGVDMHAKFDKLMALVMAMYARSKIQVYEDDPAGALKSLTACMSFINEGADLKKERHRKAIGAVLAARGMVYCKLKSYDRAEDDLTRALRFVNQKRCATLFQLRAEAREALGRIEEARLDEERAAEIWENAEVIAPGMSGKPYKFVL”, the “soluble on expression in E. coli” value was “not soluble”.
With “GPGSMWGRYVRVCTREQHSRKQLTSAGVPQGGVPGPKLFLHCVDDLLHRMDNIYSASAFMHADDLKLVASGADIHACAAAMQPALPLITKWAAEHSLKINVAKSESALFHISSHTRSDEDMVDLLPGNGNLRIQSCPVRLLDTTFDRLLNFGPHASTAAKRTMPRRYQLRPVAQAGASHHNTQSFSIGYVHIVLFHNGDAILPCFAHIYLHNMEVRYRDGRKTFLA” the “soluble on expression in E. coli” value was “not soluble”.
With “GPGSMYSKTPCVLGMPYEAAGAVLCNNPYRSQALSWYRKFLKAAFTVPWETDDDALYVMEESRRLFRQNARLTDVEMIQRKLREAEMRYELGVHYRIPYPRPVHKMQGSLQESGVPYAADLDSMYDHPVNPRTGRISEGSANYGVMGGVDNSNELLEGEMGADAEDFSK” the “soluble on expression in E. coli” value was “soluble”.

Reference: the DeepSol protein solubility set
